Reference: publication PMC8249414

Molecular target: nucleosome core particle with 167 bp '601' DNA (167NCP)

- Km of nucleosome remodeling (enzyme 10-640 nM), against ALC1 (1-673): 2 fold
Substance: ALC1 (1-673) D381A mutant (from UniProt Q86WJ1 1-673) (domain or fragment)
